B1: Transcription factor 12 (Homo sapiens), Q99081 (parent)
chain: MNPQQQRMAAIGTDKELSDLLDFSAMFSPPVNSGKTRPTTLGSSQFSGSGIDERGGTTSWGTSGQPSPSYDSSRGFTDSPHYSDHLNDSRLGAHEGLSPTPFMNSNLMGKTSERGSFSLYSRDTGLPGCQSSLLRQDLGLGSPAQLSSSGKPGTAYYSFSATSSRRRPLHDSAALDPLQAKKVRKVPPGLPSSVYAPSPNSDDFNRESPSYPSPKPPTSMFASTFFMQDGTHNSSDLWSSSNGMSQPGFGGILGTSTSHMSQSSSYGNLHSHDRLSYPPHSVSPTDINTSLPPMSSFHRGSTSSSPYVAASHTPPINGSDSILGTRGNAAGSSQTGDALGKALASIYSPDHTSSSFPSNPSTPVGSPSPLTGTSQWPRPGGQAPSSPSYENSLHSLQSRMEDRLDRLDDAIHVLRNHAVGPSTSLPAGHSDIHSLLGPSHNAPIGSLNSNYGGSSLVASSRSASMVGTHREDSVSLNGNHSVLSSTVTTSSTDLNHKTQENYRGGLQSQSGTVVTTEIKTENKEKDENLHEPPSSDDMKSDDESSQKDIKVSSRGRTSSTNEDEDLNPEQKIEREKERRMANNARERLRVRDINEAFKELGRMCQLHLKSEKPQTKLLILHQAVAVILSLEQQVRERNLNPKAACLKRREEEKVSAVSAEPPTTLPGTHPGLSETTNPMGHM
partner: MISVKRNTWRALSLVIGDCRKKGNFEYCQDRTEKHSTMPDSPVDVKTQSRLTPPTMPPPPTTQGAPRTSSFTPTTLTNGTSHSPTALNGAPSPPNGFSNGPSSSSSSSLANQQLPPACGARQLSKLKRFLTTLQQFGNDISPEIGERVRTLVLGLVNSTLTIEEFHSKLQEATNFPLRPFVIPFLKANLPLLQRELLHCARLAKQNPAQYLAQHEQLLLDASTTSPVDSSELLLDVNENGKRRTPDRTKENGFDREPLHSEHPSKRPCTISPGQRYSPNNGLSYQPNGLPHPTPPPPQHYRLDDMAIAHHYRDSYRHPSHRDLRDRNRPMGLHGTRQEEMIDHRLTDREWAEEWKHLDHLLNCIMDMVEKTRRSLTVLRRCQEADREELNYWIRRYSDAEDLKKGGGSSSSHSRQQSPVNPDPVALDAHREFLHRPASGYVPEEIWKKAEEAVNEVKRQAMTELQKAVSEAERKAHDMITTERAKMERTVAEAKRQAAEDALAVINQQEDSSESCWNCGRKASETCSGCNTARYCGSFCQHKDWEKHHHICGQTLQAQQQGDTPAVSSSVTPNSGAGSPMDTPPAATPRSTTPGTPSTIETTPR
B2: Cell growth regulator with RING finger domain protein 1 (Homo sapiens), Q99675 (parent)
chain: MAAVFLVTLYEYSPLFYIAVVFTCFIVTTGLVLGWFGWDVPVILRNSEETQFSTRVFKKQMRQVKNPFGLEITNPSSASITTGITLTTDCLEDSLLTCYWGCSVQKLYEALQKHVYCFRISTPQALEDALYSEYLYQEQYFIKKDSKEEIYCQLPRDTKIEDFGTVPRSRYPLVALLTLADEDDREIYDIISMVSVIHIPDRTYKLSCRILYQYLLLAQGQFHDLKQLFMSANNNFTPSNNSSSEEKNTDRSLLEKVGLSESEVEPSEENSKDCVVCQNGTVNWVLLPCRHTCLCDGCVKYFQQCPMCRQFVQESFALCSQKEQDKDKPKTL
partner: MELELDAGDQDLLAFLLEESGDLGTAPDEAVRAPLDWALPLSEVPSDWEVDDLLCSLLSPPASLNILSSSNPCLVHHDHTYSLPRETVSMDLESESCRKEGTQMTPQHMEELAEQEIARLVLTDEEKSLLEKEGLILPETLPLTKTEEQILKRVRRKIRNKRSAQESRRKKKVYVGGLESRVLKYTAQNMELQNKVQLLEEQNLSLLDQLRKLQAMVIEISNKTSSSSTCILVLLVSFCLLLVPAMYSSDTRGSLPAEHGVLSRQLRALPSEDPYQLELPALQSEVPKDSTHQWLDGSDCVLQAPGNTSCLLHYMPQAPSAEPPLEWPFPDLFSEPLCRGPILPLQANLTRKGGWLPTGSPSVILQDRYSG
B3: Tuftelin-interacting protein 11 (Homo sapiens), Q9UBB9 (parent)
chain: MSLSHLYRDGEGRIDDDDDERENFEITDWDLQNEFNPNRQRHWQTKEEATYGVWAERDSDDERPSFGGKRARDYSAPVNFISAGLKKGAAEEAELEDSDDEEKPVKQDDFPKDFGPRKLKTGGNFKPSQKGFAGGTKSFMDFGSWERHTKGIGQKLLQKMGYVPGRGLGKNAQGIINPIEAKQRKGKGAVGAYGSERTTQSMQDFPVVDSEEEAEEEFQKELSQWRKDPSGSKKKPKYSYKTVEELKAKGRISKKLTAPQKELSQVKVIDMTGREQKVYYSYSQISHKHNVPDDGLPLQSQQLPQSGKEAKAPGFALPELEHNLQLLIDLTEQEIIQNDRQLQYERDMVVNLFHELEKMTEVLDHEERVISNLSKVLEMVEECERRMQPDCSNPLTLDECARIFETLQDKYYEEYRMSDRVDLAVAIVYPLMKEYFKEWDPLKDCTYGTEIISKWKSLLENDQLLSHGGQDLSADAFHRLIWEVWMPFVRNIVTQWQPRNCDPMVDFLDSWVHIIPVWILDNILDQLIFPKLQKEVENWNPLTDTVPIHSWIHPWLPLMQARLEPLYSPIRSKLSSALQKWHPSDSSAKLILQPWKDVFTPGSWEAFMVKNIVPKLGMCLGELVINPHQQHMDAFYWVIDWEGMISVSSLVGLLEKHFFPKWLQVLCSWLSNSPNYEEITKWYLGWKSMFSDQVLAHPSVKDKFNEALDIMNRAVSSNVGAYMQPGARENIAYLTHTERRKDFQYEAMQERREAENMAQRGIGVAASSVPMNFKDLIETKAEEHNIVFMPVIGKRHEGKQLYTFGRIVIYIDRGVVFVQGEKTWVPTSLQSLIDMAK
partner: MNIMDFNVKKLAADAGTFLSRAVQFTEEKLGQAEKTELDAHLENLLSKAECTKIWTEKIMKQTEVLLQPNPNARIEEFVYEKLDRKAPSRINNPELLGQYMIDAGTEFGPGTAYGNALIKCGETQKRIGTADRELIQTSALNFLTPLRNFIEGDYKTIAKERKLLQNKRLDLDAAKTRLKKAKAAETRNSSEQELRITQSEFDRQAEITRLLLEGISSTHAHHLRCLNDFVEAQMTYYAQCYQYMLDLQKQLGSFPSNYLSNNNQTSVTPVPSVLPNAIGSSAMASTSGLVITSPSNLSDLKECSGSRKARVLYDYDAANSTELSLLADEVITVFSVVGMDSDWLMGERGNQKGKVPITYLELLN
B4: Tuftelin-interacting protein 11 (Homo sapiens), Q9UBB9 (parent)
chain: B3 chain
partner: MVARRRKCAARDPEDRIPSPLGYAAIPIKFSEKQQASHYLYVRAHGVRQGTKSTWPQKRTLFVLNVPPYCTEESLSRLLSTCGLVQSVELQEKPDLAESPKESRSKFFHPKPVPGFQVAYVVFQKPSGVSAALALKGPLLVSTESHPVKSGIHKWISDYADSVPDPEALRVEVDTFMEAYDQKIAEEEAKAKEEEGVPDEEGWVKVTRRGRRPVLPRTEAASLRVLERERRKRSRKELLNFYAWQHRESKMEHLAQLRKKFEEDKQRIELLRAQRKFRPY
B5: Isoform 1 of 1-aminocyclopropane-1-carboxylate synthase-like protein 1 (Homo sapiens), Q96QU6-1 (parent)
chain: MFTLPQKDFRAPTTCLGPTCMQDLGSSHGEDLEGECSRKLDQKLPELRGVGDPAMISSDTSYLSSRGRMIKWFWDSAEEGYRTYHMDEYDEDKNPSGIINLGTSENKLCFDLLSWRLSQRDMQRVEPSLLQYADWRGHLFLREEVAKFLSFYCKSPVPLRPENVVVLNGGASLFSALATVLCEAGEAFLIPTPYYGAITQHVCLYGNIRLAYVYLDSEVTGLDTRPFQLTVEKLEMALREAHSEGVKVKGLILISPQNPLGDVYSPEELQEYLVFAKRHRLHVIVDEVYMLSVFEKSVGYRSVLSLERLPDPQRTHVMWATSKDFGMSGLRFGTLYTENQDVATAVASLCRYHGLSGLVQYQMAQLLRDRDWINQVYLPENHARLKAAHTYVSEELRALGIPFLSRGAGFFIWVDLRKYLPKGTFEEEMLLWRRFLDNKVLLSFGKAFECKEPGWFRFVFSDQVHRLCLGMQRVQQVLAGKSQVAEDPRPSQSQEPSDQRR
partner: B5 chain
B6: Zinc finger protein 488 (Homo sapiens), Q96MN9 (parent)
chain: MPEWPPCLSVAPALVITMAAGKGAPLSPSAENRWRLSEPELGRGCKPVLLEKTNRLGPEAAVGRAGRDVGSAELALLVAPGKPRPGKPLPPKTRGEQRQSAFTELPRMKDRQVDAQAQEREHDDPTGQPGAPQLTQNIPRGPAGSKVFSVWPSGARSEQRSAFSKPTKRPAERPELTSVFPAGESADALGELSGLLNTTDLACWGRLSTPKLLVGDLWNLQALPQNAPLCSTFLGAPTLWLEHTQAQVPPPSSSSTTSWALLPPTLTSLGLSTQNWCAKCNLSFRLTSDLVFHMRSHHKKEHAGPDPHSQKRREEALACPVCQEHFRERHHLSRHMTSHS
partner: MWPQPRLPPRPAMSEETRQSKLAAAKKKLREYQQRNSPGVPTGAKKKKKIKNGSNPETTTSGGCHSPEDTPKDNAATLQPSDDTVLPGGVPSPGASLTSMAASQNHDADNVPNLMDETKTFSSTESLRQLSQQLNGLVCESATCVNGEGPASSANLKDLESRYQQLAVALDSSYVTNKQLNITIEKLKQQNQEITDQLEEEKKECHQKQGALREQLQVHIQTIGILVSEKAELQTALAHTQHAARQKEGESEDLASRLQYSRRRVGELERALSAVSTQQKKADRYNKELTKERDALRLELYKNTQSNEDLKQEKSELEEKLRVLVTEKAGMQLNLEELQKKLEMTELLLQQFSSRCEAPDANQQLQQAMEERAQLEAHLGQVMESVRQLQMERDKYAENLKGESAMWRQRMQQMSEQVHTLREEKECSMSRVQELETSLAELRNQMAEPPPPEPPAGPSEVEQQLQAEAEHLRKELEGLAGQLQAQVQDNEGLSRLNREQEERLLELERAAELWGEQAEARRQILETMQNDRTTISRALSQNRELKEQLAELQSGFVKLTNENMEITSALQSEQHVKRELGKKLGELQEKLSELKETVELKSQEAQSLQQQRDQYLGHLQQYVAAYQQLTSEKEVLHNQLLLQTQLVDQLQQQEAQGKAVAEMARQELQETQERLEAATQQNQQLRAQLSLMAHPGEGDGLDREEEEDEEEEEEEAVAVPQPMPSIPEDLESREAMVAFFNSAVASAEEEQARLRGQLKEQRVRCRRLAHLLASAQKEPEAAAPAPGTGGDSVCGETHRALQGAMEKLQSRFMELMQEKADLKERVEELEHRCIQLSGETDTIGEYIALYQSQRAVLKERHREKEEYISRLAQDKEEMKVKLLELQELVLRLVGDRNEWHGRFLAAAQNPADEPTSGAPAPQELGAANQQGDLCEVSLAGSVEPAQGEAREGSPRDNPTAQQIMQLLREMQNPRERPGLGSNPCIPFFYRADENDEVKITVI
B7: PIH1 domain-containing protein 2 (Homo sapiens), Q8WWB5 (parent)
chain: METSSKGLLTQVTQFWNLLDDLAQSDPEGYEKFIQQQLKEGKQLCAAPEPQLCLQTRILKPKEKILFINLCQWTRIPAPQSTTHPVPLTVGKPEDTTEISDAYTVIDVAYNPDVLHAAEKDQVKKNQLIQMAMKCIEEKFQFTLSHSYHITKFRIKGSIQRMKQNLMGIQTDSIDLREKMRRELTLGQIRSSTMSNPDHFPQLLLPKDQVSGKAVCLIEEISSTEIQVEMKMPAYELKIVHDHSEKPLKIELKVELPGINSVSLCDLSVSEDDLLIEVSEKYRLHLNLPKLIDTEMTTAKFIKEKSTLIITMPLV

Variants of: B1
Conditions: with mtg8_human RUNX1T1, Q06455

Variant	effect of a mutation on the interaction
N479S	with no effect

Variants of: B2
Conditions: with creb3_human CREB3, O43889

Variant	effect of a mutation on the interaction
R185W	disrupting interaction strength

Variants of: B3
Conditions: with shlb1_human SH3GLB1, Q9Y371

Variant	effect of a mutation on the interaction
S688L	with no effect
R8Q	with no effect

Variants of: B4
Conditions: with rrp7a_human RRP7A

Variant	effect of a mutation on the interaction
M140V	with no effect

Variants of: B5
Conditions: with 1a1l1_human ACCS

Variant	effect of a mutation on the interaction
S393L	disrupting interaction strength

Variants of: B6
Conditions: with goga2_human GOLGA2, Q08379

Variant	effect of a mutation on the interaction
C230R	with no effect
A72V	with no effect

Variants of: B7
Conditions: with cenpr_human ITGB3BP

Variant	effect of a mutation on the interaction
A117V	with no effect

Variants of: B7
Conditions: with if2b3_human IGF2BP3, O00425
Sequence of if2b3_human IGF2BP3, O00425 (O00425 whole entry): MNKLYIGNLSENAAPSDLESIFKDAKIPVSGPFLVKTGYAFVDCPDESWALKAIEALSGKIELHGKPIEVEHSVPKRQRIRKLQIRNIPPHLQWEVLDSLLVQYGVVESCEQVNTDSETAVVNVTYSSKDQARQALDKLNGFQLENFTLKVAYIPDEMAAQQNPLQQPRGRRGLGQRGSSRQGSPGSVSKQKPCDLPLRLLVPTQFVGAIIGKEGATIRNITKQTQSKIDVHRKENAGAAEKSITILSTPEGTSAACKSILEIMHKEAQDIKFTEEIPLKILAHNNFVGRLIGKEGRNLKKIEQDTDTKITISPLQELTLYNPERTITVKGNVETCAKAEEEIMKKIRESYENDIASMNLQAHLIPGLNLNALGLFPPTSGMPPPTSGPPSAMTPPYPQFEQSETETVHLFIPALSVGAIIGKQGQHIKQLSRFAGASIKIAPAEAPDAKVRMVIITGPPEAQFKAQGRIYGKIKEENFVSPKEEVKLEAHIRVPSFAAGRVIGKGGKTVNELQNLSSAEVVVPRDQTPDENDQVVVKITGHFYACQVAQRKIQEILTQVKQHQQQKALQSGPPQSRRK

Variant	effect of a mutation on the interaction
A117V	with no effect

Variants of: B7
Conditions: with if4a2_human EIF4A2, Q14240
Sequence of if4a2_human EIF4A2, Q14240 (Q14240 whole entry): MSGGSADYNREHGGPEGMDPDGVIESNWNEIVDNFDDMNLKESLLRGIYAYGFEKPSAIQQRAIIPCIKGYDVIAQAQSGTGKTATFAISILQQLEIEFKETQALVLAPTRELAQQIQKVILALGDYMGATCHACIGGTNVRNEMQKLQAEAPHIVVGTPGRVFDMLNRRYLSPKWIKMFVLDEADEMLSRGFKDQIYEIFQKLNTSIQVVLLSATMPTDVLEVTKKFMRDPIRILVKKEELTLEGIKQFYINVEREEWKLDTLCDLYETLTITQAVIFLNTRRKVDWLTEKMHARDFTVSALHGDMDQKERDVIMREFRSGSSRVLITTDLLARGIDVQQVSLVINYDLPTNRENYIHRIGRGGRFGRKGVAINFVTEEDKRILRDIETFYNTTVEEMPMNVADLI

Variant	effect of a mutation on the interaction
A117V	with no effect

Variants of: B7
Conditions: with gfap_human GFAP

Variant	effect of a mutation on the interaction
A117V	disrupting interaction strength
